Measured values as given in patent US20210253688A1 (UCB, published 2021).
Residue numbers refer to the chain shown, from its start.

B1: Ab7326 (format in the assay not stated) (antibody, V domains shown)
VH: QVQLVESGAEVKKPGATVKISCKVSGYTFTDYYMHWVQQAPGKGLEWMGLVDPEDGETIYAEKFQGRVTITADTSTDTAYMELSSLRSEDTAVYYCATDARGSGSYYPNHFDYWGQGTLVTVSS
VL: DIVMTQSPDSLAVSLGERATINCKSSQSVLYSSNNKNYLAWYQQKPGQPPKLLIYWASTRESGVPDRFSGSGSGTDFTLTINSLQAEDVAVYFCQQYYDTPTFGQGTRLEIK
B2: Ab7326 mouse full length IgG1 (antibody, V domains shown)
VH: B1 VH
VL: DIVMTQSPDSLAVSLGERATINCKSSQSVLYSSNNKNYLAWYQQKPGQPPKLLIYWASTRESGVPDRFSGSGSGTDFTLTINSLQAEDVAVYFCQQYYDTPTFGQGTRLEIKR
notes: also called anti-Gremlin mIgG; UCB Ab7326 mouse IgG1
B3: truncated human Gremlin-1 (E. coli expressed, refolded, N-terminal 6His-TEV tag) (ligand)
chain: MGSSHHHHHHSSGENLYFQGSAMPGEEVLESSQEALHVTERKYLKRDWCKTQPLKQTIHEEGCNSRTIINRFCYGQCNSFYIPRHIRKEEGSFQSCSFCKPKKFTTMMVTLNCPELQPPTKKKRVTRVKQCRCISIDLD
B4: human Gremlin-1 (full length; recombinant human Gremlin 1) (ligand)
chain: KKKGSQGAIPPPDKAQHNDSEQTQSPQQPGSRNRGRGQGRGTAMPGEEVLESSQEALHVTERKYLKRDWCKTQPLKQTIHEEGCNSRTIINRFCYGQCNSFYIPRHIRKEEGSFQSCSFCKPKKFTTMMVTLNCPELQPPTKKKRVTRVKQCRCISIDLD

Key:
[1] = molecular target: B4; test: cell-based or functional assay
mouse Gremlin = molecular target: T1, mouse Gremlin (mouse, UniProt O70326 25-184); test: cell-based or functional assay
T1 sequence (looked up): B4 chain with Q27P, N33T

[2] = molecular target: B4; test: SPR, Biacore T200, 25 °C; mIgG captured on anti-mouse Fc, recombinant human Gremlin 1 titrated from 5 nM; average of 5 determinations
Experimental: The affinity of anti-Gremlin mIgG for human Gremlin 1 was determined by biamolecular interaction analysis using surface plasmon resonance (SPR) technology on a Biacore T200 system, GE Healthcare Bio-Sciences AB. Anti-Gremlin mIgG was captured by an immobilised anti-mouse Fc surface and Gremlin 1 was titrated over the captured mIgG. The capture ligand (affinipure F(ab′)₂ fragment of goat anti-mouse IgG, Fc fragment specific, 115-006-071, Jackson ImmunoResearch Inc.) was immobilised at 50 μg/ml in 10 mM NaAc, pH 5.0 on flow cell 2 of a CM4 Sensor Chip via amine coupling chemistry, using 600 s activation and deactivation injections, to a level of ˜1600 response units (RU). HBS-EP+ buffer (0.01 M HEPES pH 7.4, 0.15 M NaCl, 3 mM EDTA, 0.05% Surfactant P20) was used as the running buffer with a flow rate of 10 μ1/min. A reference surface was prepared on flow cell 1 by activating and deactivating the surface as for flow cell 2 but omitting the capture ligand.
The assay buffer was HBS-EP+ plus an extra 150 mM NaCl to give a final NaCl concentration of 300 mM plus 1% CMD40. A 60 s injection of anti-Gremlin mIgG (at 5 μg/ml in running buffer) was passed over flow cells 1 and 2 to give a capture level of approximately 100 RU on the immobilised anti-mouse IgG, Fc surface. […]
The kinetic data was determined using Biacore T200 evaluation software.

BMP4/7 heterodimer = molecular target: T2, BMP4/7 heterodimer (human, UniProt P12644 293-408; P18075 293-431); test: cell-based or functional assay
T2 sequence (looked up) 1: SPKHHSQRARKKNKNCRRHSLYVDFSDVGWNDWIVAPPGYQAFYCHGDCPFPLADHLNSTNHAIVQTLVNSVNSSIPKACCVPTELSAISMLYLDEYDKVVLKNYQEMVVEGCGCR
T2 sequence (looked up) 2: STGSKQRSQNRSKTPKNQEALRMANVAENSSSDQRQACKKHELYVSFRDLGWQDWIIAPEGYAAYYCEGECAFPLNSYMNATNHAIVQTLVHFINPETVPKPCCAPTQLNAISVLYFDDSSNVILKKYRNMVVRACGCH

In the case of B1, the “IC50, Hek-Id1 reporter gene assay, restoration of BMP signalling” value [1] is reported as 1.3 nM and the “IC50, Hek-Id1 reporter gene assay, restoration of BMP signalling” value (mouse Gremlin) is reported as 0.2 nM.

With B2 the Kd [2] was < 0.1 nM.

In the case of B3, the “IC50, Hek-Id1 reporter gene assay, geometric mean (N=2)” value (BMP4/7 heterodimer) is reported as 1.7 nM.

With B4 the “IC50, Hek-Id1 reporter gene assay, geometric mean (N=2)” value (BMP4/7 heterodimer) was 1.6 nM.
